The test has as its target albumin. The test is described as follows: albumin binding constant (K), same method as the earlier dye-albumin study; method not described.

In turn, “LS838: Cypate-Cyclo(DCys-Gly-Arg-Asp-Ser-Pro-Cys)-Tyr-OH (peptide)” yielded a Ka of 86000 M⁻¹.

The record behind these values is patent US20180289842A1.
